Measurements published in US20170240596A1 (published 2017).
Each block holds one binder with its values, some of them ahead of it. No end group written: not given here.

Columns and labels:
C4-2 [1] = assay: flow cytometry; C4-2 cells; apparent Kd
C4-2 cells [2] = assay: flow cytometry; C4-2 cells; apparent Kd
C4-2 cells [3] = assay: flow
C4-2 [4] = assay: flow

Kd (C4-2 [1]): 44.1 µM
B1: TGH (peptide)
peptide: TGHLYPTRMEIQ
modifications: also: FAM label, position not given here

Kd (C4-2 cells [2]): > 100 µM
B2: Scrambled GTI (peptide)
peptide: SGYQTFYWPGPI
modifications: also: FAM label, position not given here

Kd (C4-2 [1]): 9.79 µM
B3: YVN (peptide)
peptide: YVNSHSILGYTG
modifications: also: FAM label, position not given here

Kd (C4-2 cells [3]): 8.91 µM
Kd (C4-2 [4]): 8.91 µM
B4: GTI (peptide)
peptide: GTIQPYPFSWGY
modifications: also: FAM (fluorescein amidite) label, position not given here

Kd (C4-2 [1]): 30.8 µM
B5: HSD (peptide)
peptide: HSDNHYRPADKL
modifications: also: FAM label, position not given here
